Values of other authors, collected in US20050119762A1, “Hydrogel providing cell-specific ingrowth” (priority 2003, published 2005).

Experiments:
MMP-2 [1] = target: T1, MMP-2 (Homo sapiens, UniProt P08253); conditions: synthesized peptides, reciprocal plots
T1 sequence (P08253 110-660): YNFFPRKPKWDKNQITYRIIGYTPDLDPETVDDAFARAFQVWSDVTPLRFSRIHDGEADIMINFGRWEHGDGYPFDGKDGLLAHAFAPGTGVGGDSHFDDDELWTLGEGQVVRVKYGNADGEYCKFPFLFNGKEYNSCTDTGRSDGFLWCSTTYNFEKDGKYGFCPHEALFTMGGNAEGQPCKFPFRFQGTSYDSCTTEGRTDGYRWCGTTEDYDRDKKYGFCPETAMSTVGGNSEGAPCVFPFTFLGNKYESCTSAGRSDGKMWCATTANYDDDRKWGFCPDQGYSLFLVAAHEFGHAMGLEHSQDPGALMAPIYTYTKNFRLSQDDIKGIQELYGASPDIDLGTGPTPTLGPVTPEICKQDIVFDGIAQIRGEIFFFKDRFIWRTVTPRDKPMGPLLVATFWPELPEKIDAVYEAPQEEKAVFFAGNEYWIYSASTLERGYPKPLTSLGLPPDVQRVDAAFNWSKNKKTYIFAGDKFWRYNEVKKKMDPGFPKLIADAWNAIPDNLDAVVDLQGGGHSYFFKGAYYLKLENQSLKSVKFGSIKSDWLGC

MMP-9 [2] = target: T2, MMP-9 (Homo sapiens, UniProt P14780); conditions: peptides based on phage clones
T2 construct: a recombinant form of the catalytic domain of MMP-9 expressed in HEK 293 cells; host or cells: HEK 293 cells
T2 sequence (P14780 107-444 limits assumed): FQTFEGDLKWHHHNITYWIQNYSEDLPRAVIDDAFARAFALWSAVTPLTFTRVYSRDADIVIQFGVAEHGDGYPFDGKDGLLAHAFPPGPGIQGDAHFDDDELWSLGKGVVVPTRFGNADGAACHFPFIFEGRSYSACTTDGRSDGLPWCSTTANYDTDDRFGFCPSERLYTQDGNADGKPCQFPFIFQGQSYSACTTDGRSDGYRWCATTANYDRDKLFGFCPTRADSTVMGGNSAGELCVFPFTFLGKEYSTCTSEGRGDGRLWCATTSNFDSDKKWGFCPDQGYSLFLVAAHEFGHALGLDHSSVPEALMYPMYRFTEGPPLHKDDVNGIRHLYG

MMP-2 [3] = target: T1, MMP-2; conditions: phage substrate clones hydrolysed by activated MMP-2; for % Hydrolysis exp 1: experiment 1; for % Hydrolysis exp 2: experiment 2
MMP-9 [4] = target: T2, MMP-9; conditions: phage clones selected by MMP-9; for % Hydrolysis 1: experiment 1; for % Hydrolysis 2: experiment 2
MMP-2 [5] = target: T1, MMP-2

Row | Substance | MMP-2 kcat (MMP-2 [1]) | MMP-9 kcat (MMP-9 [2]) | % Hydrolysis exp 1 (MMP-2 [3]) | % Hydrolysis exp 2 (MMP-2 [3]) | % Hydrolysis 1 (MMP-9 [4]) | % Hydrolysis 2 (MMP-9 [4]) | other results
1 | SGAKPRA ↓ LTA (SGAKPRALTA; peptide substrate based on phage clones) [Peptide A3] | 400 s⁻¹ |  |  |  |  |  | 
2 | SGESPAY ↓ YTA (SGESPAYYTA; peptide substrate based on phage clones) [Peptide B74P] | 264 s⁻¹ |  |  |  |  |  | 
3 | SGKIPRR ↓ LTA (SGKIPRRLTA; peptide substrate based on phage clones) [Peptide A11m1] |  | 224 S^−1 |  |  |  |  | 
4 | SGHMHKA ↓ LTA (SGHMHKALTA; peptide substrate based on phage clones) [Peptide A21] | 124 s⁻¹ |  | 30% | 49% |  |  | 
5 | SGPRA ↓ VSTTA (SGPRAVSTTA; peptide substrate based on phage clones) [Peptide A6] |  | 178 S^−1 | 30% | 44% | 100% | 99% | 
6 | SGHMHAA ↓ LTA (SGHMHAALTA; peptide substrate based on phage clones) [Peptide A21A] | 601 s⁻¹ |  |  |  |  |  | 
7 | SGRR ↓ LLSRTA (SGRRLLSRTA; peptide substrates based on phage clones) [Peptide A16] |  |  |  |  | 20.2% | 11% | 
8 | SGKGPRQ ↓ ITA (SGKGPRQITA; peptide substrate based on phage clones) [Peptide C15] |  | 703 S^−1 |  |  | 100% | 98% | 
9 | SGANISD ↓ LTA (SGANISDLTA; peptide substrate based on phage clones) [Peptide B37] | 353 s⁻¹ |  | 97% | 95% |  |  | 
10 | SGKIPRT ↓ ATA (SGKIPRTATA; peptide substrate based on phage clones) [Peptide A11m2] |  | 9.4 S^−1 |  |  |  |  | 
11 | SGLRPAK ↓ STA (SGLRPAKSTA; peptide substrate based on phage clones) [Peptide A18] |  | 78 S^−1 |  |  | 28.9% | 30% | 
12 | SGRSLRR ↓ LTA (SGRSLRRLTA; peptide substrate based on phage clones) [Peptide C9R] | 302 s⁻¹ |  |  |  |  |  | 
13 | GCRDSGESLAYYTADRCG |  |  |  |  |  |  | hydrolysis by MMP-2 (MMP-2 [5]): sensitive to hydrolysis
14 | SGFGSRY ↓ LTA (SGFGSRYLTA; peptide substrate based on phage clones) [Peptide A19] |  | 11 S^−1 |  |  | 45% | 50% | 
15 | SGNRYSS ↓ LTA (SGNRYSSLTA; peptide substrate based on phage clones) [Peptide A34] | 202 s⁻¹ |  | 100% | 100% |  |  | 
16 | SGRSLSR ↓ LTA (SGRSLSRLTA; peptide substrate based on phage clones) [Peptide C9] | 740 s⁻¹ |  | 100% | 100% |  |  | 
17 | SGESLRY ↓ YTA (SGESLRYYTA; peptide substrate based on phage clones) [Peptide B74R] | 61 s⁻¹ |  |  |  |  |  | 
18 | SGAVSW ↓ LLTA (SGAVSWLLTA; peptide sequence based on phage clones) [Peptide A13] | 105 s⁻¹ |  | 100% | 93% | 78.9% | 72% | 
19 | SGLRLAA ↓ ITA (SGLRLAAITA; peptide substrates based on phage clones) [Peptide B49] | 510 s⁻¹ |  | 100% | 100% |  |  | 
20 | SGQPHY ↓ LTTA (SGQPHYLTTA; peptide substrate based on phage clones) [Peptide B1] |  | 9 S^−1 |  |  | 79.6% | 85% | 
21 | SGESLAY ↓ YTA (SGESLAYYTA; peptide substrate based on phage clones) [Peptide B74] | 622 s⁻¹ |  | 81% | 90% |  |  | 
22 | SGAVRW ↓ LLTA (SGAVRWLLTA; peptide substrate based on phage clones) [Peptide A13R] | 28 s⁻¹ |  |  |  |  |  | 
23 | SGPLF ↓ YSVTA (SGPLFYSVTA; peptide substrate based on phage clones) [Peptide A10] |  | 20 S^−1 | 36% | 40% | 100% | 100% | 
24 | SGAPSW ↓ LLTA (SGAPSWLLTA; peptide substrate based on phage clones) [Peptide A13P] | 204 s⁻¹ |  |  |  |  |  | 
25 | SGRR ↓ LIHHTA (SGRRLIHHTA; peptide substrates based on phage clones) [Peptide C11] |  |  |  |  | 94.9% | 74% | 
26 | SG ↓ LKALMITA (SGLKALMITA; peptide substrate based on phage clones) [Peptide A7] |  | 30 S^−1 |  |  | 79.8% | 76% | 
27 | SGKIPRT ↓ LTA (SGKIPRTLTA; peptide substrate based on phage clones) [Peptide A11] |  | 86.4 S^−1 |  |  | 100% | 100% | 
